Assays:
[1] = target: T1, MBP-Loc1p (Saccharomyces cerevisiae, UniProt P43586 1-204); experiment: competition; vs labeled ASH1 E3; 10-500x; EMSA: 20 mM HEPES pH 7.8, 200 mM NaCl, 2 mM MgCl2, 2 mM DTT, 4% glycerol, 25 C, 5 nM RNA, 100 ug/ml tRNA (omitted in competition); NMR: 20 mM Na phosphate pH 7.4, 50 mM NaCl, 278 K; conditions: protein: recombinant; tags: MBP; hairpin
[2] = target: Loc1p (Saccharomyces cerevisiae, UniProt P43586 1-204); experiment: EMSA; nanomolar range; 100 ug/ml yeast tRNA; EMSA: 20 mM HEPES pH 7.8, 200 mM NaCl, 2 mM MgCl2, 2 mM DTT, 4% glycerol, 25 C, 5 nM RNA, 100 ug/ml tRNA (omitted in competition); NMR: 20 mM Na phosphate pH 7.4, 50 mM NaCl, 278 K; conditions: protein: recombinant; hairpin
[3] = target: T2, MBP-Loc1p (Saccharomyces cerevisiae, UniProt P43586 1-204); experiment: EMSA; 100 nM DNA; affinity similar to ssRNA; EMSA: 20 mM HEPES pH 7.8, 200 mM NaCl, 2 mM MgCl2, 2 mM DTT, 4% glycerol, 25 C, 5 nM RNA, 100 ug/ml tRNA (omitted in competition); NMR: 20 mM Na phosphate pH 7.
[4] = target: T3, Loc1p (3-15) (Saccharomyces cerevisiae, UniProt P43586 3-15); experiment: NMR (1H-15N HSQC titration); range over peptide signals; EMSA: 20 mM HEPES pH 7.8, 200 mM NaCl, 2 mM MgCl2, 2 mM DTT, 4% glycerol, 25 C, 5 nM RNA, 100 ug/ml tRNA (omitted in competition); NMR: 20 mM Na phosphate pH 7.4, 50 mM NaCl, 278 K; conditions: protein: recombinant; tags: GST removed by thrombin (15N,13C sample); hairpin, 11 bp stem, GAAA loop
T3 chain: PKKPSKRQNLRRE

[5] = target: T2, MBP-Loc1p; experiment: competition; vs labeled TAR-57; 10-500x; EMSA: 20 mM HEPES pH 7.8, 200 mM NaCl, 2 mM MgCl2, 2 mM DTT, 4% glycerol, 25 C, 5 nM RNA, 100 ug/ml tRNA (omitted in competition); NMR: 20 mM Na phosphate pH 7.
[6] = target: Loc1p (Saccharomyces cerevisiae, UniProt P43586 1-204); experiment: EMSA; nanomolar range; 100 ug/ml yeast tRNA; EMSA: 20 mM HEPES pH 7.8, 200 mM NaCl, 2 mM MgCl2, 2 mM DTT, 4% glycerol, 25 C, 5 nM RNA, 100 ug/ml tRNA (omitted in competition); NMR: 20 mM Na phosphate pH 7.
[7] = target: T2, MBP-Loc1p; experiment: competition; vs labeled ASH1 E3; 10-500x; EMSA: 20 mM HEPES pH 7.8, 200 mM NaCl, 2 mM MgCl2, 2 mM DTT, 4% glycerol, 25 C, 5 nM RNA, 100 ug/ml tRNA (omitted in competition); NMR: 20 mM Na phosphate pH 7.
[8] = target: T1, MBP-Loc1p; experiment: competition; vs labeled TAR-57; 10-500x; EMSA: 20 mM HEPES pH 7.8, 200 mM NaCl, 2 mM MgCl2, 2 mM DTT, 4% glycerol, 25 C, 5 nM RNA, 100 ug/ml tRNA (omitted in competition); NMR: 20 mM Na phosphate pH 7.4, 50 mM NaCl, 278 K; conditions: protein: recombinant; tags: MBP
[9] = target: T4, Loc1p array peptide A10 (Saccharomyces cerevisiae, UniProt P43586 28-47); experiment: peptide array; EMSA: 20 mM HEPES pH 7.8, 200 mM NaCl, 2 mM MgCl2, 2 mM DTT, 4% glycerol, 25 C, 5 nM RNA, 100 ug/ml tRNA (omitted in competition); NMR: 20 mM Na phosphate pH 7.4, 50 mM NaCl, 278 K; conditions: tags: array-immobilized; label: radioactive
T4 chain: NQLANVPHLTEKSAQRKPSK

[10] = target: Loc1p array peptide B7 (Saccharomyces cerevisiae, UniProt P43586 79-98); experiment: as above; conditions: tags: array-immobilized; label: radioactive
[11] = target: T5, Loc1p array peptide B19 (Saccharomyces cerevisiae, UniProt P43586 115-134); experiment: as above; conditions: tags: array-immobilized; label: radioactive
T5 chain: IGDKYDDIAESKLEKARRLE

[12] = target: T6, Loc1p array peptide A7 (Saccharomyces cerevisiae, UniProt P43586 19-38); experiment: as above; conditions: tags: array-immobilized; label: radioactive
T6 chain: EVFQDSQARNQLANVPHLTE

[13] = target: Loc1p array peptide B8 (Saccharomyces cerevisiae, UniProt P43586 82-101); experiment: as above; conditions: tags: array-immobilized; label: radioactive
[14] = target: Loc1p array peptide A15 (Saccharomyces cerevisiae, UniProt P43586 43-62); experiment: as above; conditions: tags: array-immobilized; label: radioactive
[15] = target: T7, Loc1p array peptide A11 (Saccharomyces cerevisiae, UniProt P43586 31-50); experiment: as above; conditions: tags: array-immobilized; label: radioactive
T7 chain: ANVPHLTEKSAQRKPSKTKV

[16] = target: T8, Loc1p array peptide A9 (Saccharomyces cerevisiae, UniProt P43586 25-44); experiment: as above; conditions: tags: array-immobilized; label: radioactive
T8 chain: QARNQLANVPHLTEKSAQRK

[17] = target: Loc1p array peptide A14 (Saccharomyces cerevisiae, UniProt P43586 40-59); experiment: as above; conditions: tags: array-immobilized; label: radioactive
[18] = target: Loc1p array peptide B6 (Saccharomyces cerevisiae, UniProt P43586 76-95); experiment: as above; conditions: tags: array-immobilized; label: radioactive
[19] = target: Loc1p array peptide C15 (Saccharomyces cerevisiae, UniProt P43586 163-182); experiment: as above; conditions: tags: array-immobilized; label: radioactive
[20] = target: Loc1p array peptide B5 (Saccharomyces cerevisiae, UniProt P43586 73-92); experiment: as above; conditions: tags: array-immobilized; label: radioactive

B1: HIV TAR-57 (structured_RNA)
RNA: GGUCUCUCUGGUUAGACCAGAUCUGAGCCUGGGAGCUCUCUGGCUAACUAGGGAACC
binding result [1]: binds
binding result [2]: binds

AAAAAAAAAAAAAAAAAAAAA (ssDNA) [Cy3-A(21) ssDNA]
binding result [3]: binds

UCUCUGGUUAGGAAACUAACUAGGGA (structured_RNA) [dsRNA tetraloop]
Kd [4]: ~73.7 µM

CGAAGAUGAAAAUGAUCACGAGAGAGAUCCCGAACAAUUUUCAGAAUUUG (ssRNA) [EAR1 LE]
binding result [5]: binds
binding result [6]: binds

B2: poly-A60 (ssRNA)
RNA: AAAAAAAAAAAAAAAAAAAAAAAAAAAAAAAAAAAAAAAAAAAAAAAAAAAAAAAAAAAA
binding result [7]: binds
binding result [6]: binds
binding result [8]: binds

B3: ASH1 E3 (short) (structured_RNA)
RNA: AUGGAUAACUGAAUCUCUUUCAACUAAUAAGAGACAUUAUCACGAAACAAU
binding result [9]: binds
binding result [10]: binds
binding result [11]: no binding
binding result [12]: no binding
binding result [13]: binds
binding result [14]: binds
binding result [15]: binds
binding result [16]: binds
binding result [17]: binds
binding result [18]: binds
binding result [19]: binds
binding result [20]: binds

Source: paper PMC11662656, “Intrinsically disordered RNA-binding motifs cooperate to catalyze RNA folding and drive phase separation”
